pKd: −log10 of the molar value.
Target: COX-2 (prostaglandin endoperoxide synthase 2, PTGS2), purified His-tagged protein (UniProt P35354)
Assay: SPR; COX-2 immobilised on a CM5 chip, cyclosporine A flowed at increasing concentrations; 10 mM Hepes pH 7.2, 150 mM NaCl, 1 mM EDTA, 0.005% P20, 2% ethanol; 25 °C, 30 µl/min; 1:1 Langmuir model; triplicate

Sequence of COX-2 (prostaglandin endoperoxide synthase 2, PTGS2), purified His-tagged protein (P35354 18-604): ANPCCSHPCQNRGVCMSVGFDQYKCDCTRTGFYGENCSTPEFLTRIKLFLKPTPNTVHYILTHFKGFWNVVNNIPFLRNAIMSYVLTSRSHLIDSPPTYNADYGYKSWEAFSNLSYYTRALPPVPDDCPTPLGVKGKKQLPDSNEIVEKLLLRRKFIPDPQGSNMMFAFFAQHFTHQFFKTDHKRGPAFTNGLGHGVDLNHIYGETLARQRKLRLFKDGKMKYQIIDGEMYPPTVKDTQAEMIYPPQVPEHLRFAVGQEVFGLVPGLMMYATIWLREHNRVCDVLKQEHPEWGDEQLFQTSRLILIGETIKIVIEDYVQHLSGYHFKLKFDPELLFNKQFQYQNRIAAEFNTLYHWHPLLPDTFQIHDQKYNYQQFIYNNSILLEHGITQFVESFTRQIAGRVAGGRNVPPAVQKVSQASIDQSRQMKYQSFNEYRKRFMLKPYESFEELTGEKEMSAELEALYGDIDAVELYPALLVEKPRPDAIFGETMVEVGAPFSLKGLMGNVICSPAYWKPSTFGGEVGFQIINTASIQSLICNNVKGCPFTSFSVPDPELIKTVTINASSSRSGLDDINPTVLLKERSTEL

- pKd: 6.05
Substance: Cyclosporine A (peptide)

— paper PMC6232179
